Consider one molecule from patent EP1758924B1 (Council of Scientific and Industrial Research, dated 2005).

The target in this assay is T1, Hsp16.3 (16 kDa alpha-crystallin like heat-shock protein of Mycobacterium tuberculosis), recombinant, 6 X His … (Mycobacterium tuberculosis).
T1 construct: also called M. tuberculosis Acr (Hsp16.3) protein
Nature of the assay: reverse phage ELISA on coated Hsp16.3, anti-M13-HRP, A405.

B1: phage clone displaying peptide sequence Seq ID 21 (Tyr-Pro-His-His-Phe-Lys-His-Arg-His-Ile-Pro-Ile), from the Ph.D.-12 library on bacteriophage M13 (peptide)
peptide: YPHHFKHRHIPI
notes: Tested as whole phage in the reverse phage ELISA; not shown: fused to an M13 coat protein (spacer Gly-Gly-Gly-Ser is named)
B1: the “fold binding over BSA background” value was roughly 3 fold.
